# T1: human IL1RAP (human, UniProt Q9NPH3 21-570)
# T1 sequence: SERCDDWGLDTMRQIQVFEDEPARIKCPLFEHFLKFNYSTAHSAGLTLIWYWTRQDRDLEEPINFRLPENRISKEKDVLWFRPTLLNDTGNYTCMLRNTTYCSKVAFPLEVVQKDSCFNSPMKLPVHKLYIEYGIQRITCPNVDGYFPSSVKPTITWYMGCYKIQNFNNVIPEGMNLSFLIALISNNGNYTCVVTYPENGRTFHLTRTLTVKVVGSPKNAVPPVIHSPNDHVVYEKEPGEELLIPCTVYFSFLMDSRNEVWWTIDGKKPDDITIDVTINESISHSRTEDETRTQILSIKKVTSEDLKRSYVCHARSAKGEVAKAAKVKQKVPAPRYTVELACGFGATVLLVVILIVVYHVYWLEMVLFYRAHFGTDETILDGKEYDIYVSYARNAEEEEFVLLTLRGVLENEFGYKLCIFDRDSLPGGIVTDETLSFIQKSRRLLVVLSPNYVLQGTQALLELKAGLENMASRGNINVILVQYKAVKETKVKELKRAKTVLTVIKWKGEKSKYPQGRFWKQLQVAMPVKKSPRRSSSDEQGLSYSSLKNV
# Key:
# Test in all cases: cell-based or functional assay
# human IL1RAP [1] = target: T1, human IL1RAP
# human IL1RAP [2] = target: T1, human IL1RAP; remark: listed apart in the source
# human IL1RAP [3] = target: T1, human IL1RAP; remark: listed apart in the source
# human IL1RAP [4] = target: T1, human IL1RAP; remark: listed apart in the source
Binder,"EC50 (inhibition of IL-1beta signalling, HEK-Blue IL-1beta reporter cells, 0.5 ng/ml IL-1beta, Abs. 620 nM) (human IL1RAP [1]) [nM]","EC50 (inhibition of IL-1alpha signalling, HEK-Blue IL-1beta reporter cells, 0.5 ng/ml IL-1a, Abs. 620 nM) (human IL1RAP [2]) [nM]","EC50 (inhibition of IL-33 signalling, HEK-Blue IL-33 reporter cells, 0.5 ng/ml IL-33, Abs. 620 nm; partial, lower plateau about 0.4) (human IL1RAP [3]) [nM]",EC50 against IL-1α (IL-1 signaling reporter cell assay) (human IL1RAP [4]) [nM],EC50 against IL-1β (IL-1 signaling reporter cell assay) (human IL1RAP [4]) [nM],"EC50 (inhibition of IL-33 signalling, HEK-Blue IL-33 reporter cells, 0.5 ng/ml IL-33, Abs. 620 nm; partial) (human IL1RAP [3]) [nM]"
"5G8_18A1 (antibody, V domains shown) VH: QVELQESGPGLVKPSDTLSLTCTVTGGSISTYYWSWIRQPPGKGLEWIGYIFYTGTTNYNPSLKSRVTISVDASKNQFSLKLNSVTAADTAVYYCARDGSLDYWGQGALVTVSS VL: DIQMTQSPSSLSASVGDRVTITCRASQSISNYLNWYQQKPGKAPKLLIFVASLLQSGVPSRFSGSGSGTDFTLTISSLQPEDFATYYCQQSYSTPFTFGPGTKLEIK",0.58,0.83,,,,
"16H2_17D2 (antibody, V domains shown) VH: QVQLVESGGGVVQPGGSLRLSCAASGFTFSSHGMHWVRQAPGKGLEWVAVIWYDGSNKFYTDSVQGRFTISRDNSKNTLNLQMNSLRAEDTAVYYCAREGLRAGYYFDFWGQGTLVTVSS VL: DIQMTQSPSSLSASVGDRVTITCRASQRISFYSNWYQQKPGKAPKLLIYAASSLQSGVPSRFSGSGSGTDFTLTISSLQPEDFATYFCQQSHSTPLTFGGGTKLEIK",0.1,0.09,,,,
"37E10_15B5 (antibody, V domains shown) VH: QVQLVESGGGVVQPGRSLRLSCAASGFTFRSHGMHWVRQAPGKGLEWVAVIWYDGSSEYYADSVKGRFTISRDNSKNTLYLQMNSLRAEDTAVYYCARENVYGSGWFFDYWGQGTLVTVSS VL: EIVMTQSPATLSVSPGERASLSCRASQSVGSNLAWYQQRPGQAPRLLIFGASTRATGIPARFSGSRSGTEFTLTISSLQSEDFALYYCQQYNNWPPWTFGQGTKLEIK",0.15,0.19,0.32,< 1,< 1,

# More lines, now with the values ahead:
"EC50 (inhibition of IL-1beta signalling, HEK-Blue IL-1beta reporter cells, 0.5 ng/ml IL-1beta, Abs. 620 nM) (human IL1RAP [1]) [nM]","EC50 (inhibition of IL-1alpha signalling, HEK-Blue IL-1beta reporter cells, 0.5 ng/ml IL-1a, Abs. 620 nM) (human IL1RAP [2]) [nM]","EC50 (inhibition of IL-33 signalling, HEK-Blue IL-33 reporter cells, 0.5 ng/ml IL-33, Abs. 620 nm; partial, lower plateau about 0.4) (human IL1RAP [3]) [nM]",EC50 against IL-1α (IL-1 signaling reporter cell assay) (human IL1RAP [4]) [nM],EC50 against IL-1β (IL-1 signaling reporter cell assay) (human IL1RAP [4]) [nM],"EC50 (inhibition of IL-33 signalling, HEK-Blue IL-33 reporter cells, 0.5 ng/ml IL-33, Abs. 620 nm; partial) (human IL1RAP [3]) [nM]",Binder
0.17,0.18,0.44,< 1,< 1,,"44E5_15C5 (antibody, V domains shown) VH: QVQLVESGGGVVQPGRSLRLSCAASGFTFRSHGMHWVRQAPGKGLEWVAVIWYDGSSDYYADSVKGRFTISRDNSKNTLFLQMNSLSAEDTAVYYCARENVYGSGWFFDYWGQGTLVTVSS VL: EIVMTQSPATLSVSPGERASLSCRASQSVGSNLAWYQQKPGQAPRLLIFGASTRATGIPARFSGSRSGTEFTLTISSLQSEDFALYYCQQYNNWPPWTFGQGTKLEIK"
0.29,0.66,,,,1.76,"36A10_21B6 (antibody, V domains shown) VH: QGQVVESGGGVVQPGRSLRLSCAASGFTFSSYTLHWVRQAPGKGLEWVAVIWYDGSNKYYVDSVKGRFTISRDNSKNTLYLQMNSLRAEDTAVYYCAREYGSGSYYNVYYGMDVWGQGTTVTLSS VL: DIVMTQSPLSLPVTPGEPASISCRSSQSLLHSNGYNYLDWYLQKPGQSPHLLIYLASNRASGVPDRFSGSGSGTDFTLKISRVEAEDVGFYYCMQTLQIPLTFGGGTKVEIK"
